Assay results reported in the Human Domainome abundance scans (Beltran et al. 2025).

B1: Gamma-crystallin C, residues 91 to 170; numbered along this chain, P07315 (parent)
chain: RLYEREDHKGLMMELSEDCPSIQDRFHLSEIRSLHVLEGCWVLYELPNYRGRQYLLRPQEYRRCQDWGAMDAKAGSLRRV

Variants of: B1
Experiment: abundance fitness (aPCA) (normalised: wild type 0, dead -1); higher = more abundant; growth selection in yeast, the domain comes from the species named
Conditions: Homo sapiens

Abundance fitness of substitutions, site by site:
W67: H -0.89, S -0.778, E -1.07, T -0.612, C -0.703, A -0.944, L -0.951, G -1, P -0.935, K -0.827, Q -0.681, R -0.744
Q59: R -0.047, V -0.266, P -0.994, K 0.135, W -0.486, M -0.038, N -0.364, F -0.377, S -0.116, H -0.245, D -0.217, G 0.02, C -0.052, A 0.041, L -0.438, E -0.354, I -0.145
S76: V -0.773, I 0.016, P -0.776, A -0.628, H -0.735
A69: Q -0.38, M -0.847, W -0.668, S -0.074, R -0.964, D -0.701, G -0.196, T -0.361, L -0.935, V -0.818, P -0.968, C -0.621
Y61: P -1.07, H -0.919, T -0.529, V -1.05, R -1.06, L -0.922, S -0.936, I -0.808, M -0.964, G -0.925, C -0.934, A -1.04
A74: T -0.128, M -0.836, I 0.124, S -0.314, E -0.56, V 0.036, L -0.454, D -0.749, Q -0.797, G -0.454, P -0.779, Y -0.781, C -0.177
L77: F -0.304, C -0.325, E -0.966, D -0.94, A -0.524
R62: W -0.073, Y -0.252, E -0.6, S -0.069, G -0.237, T -0.262, F -0.086, M 0.195, V -0.365, N -0.64, D -0.619, P -0.196, Q -0.1, A 0.07
K73: Y -0.295, N -0.026, M -0.231, P -0.628, Q -0.264, V -0.18, E -0.495, G -0.304, A -0.069, C -0.175, T -0.124, H -0.042, F -0.368, S -0.145, L -0.185, W -0.321, R 0.017
M70: P 0.064, V -0.017, F -0.226, T -0.06, S -0.052, C -0.217, Y -0.105, E 0.034, L -0.063, H 0.049, G -0.167, R -0.016, W -0.257, D 0.094, K -0.053, I 0.097
R63: M -0.32, C -0.15, H -0.167, Q -0.089, E -0.234, F -0.574, A -0.056, L -0.654, S -0.091, D -0.58, T 0.016, P -1.02, Y -0.23
P58: C -0.334, T -0.105, K -0.15, F -0.882, S -0.202, A -0.167, D -0.167, G -0.744, L -0.98, H -0.587, V -0.378, I -0.623, R -0.453, N -0.268
D66: C -0.485, M -0.47, P -0.879, S -0.316, H -0.548, Q -0.491, R -0.857, E -0.083, A -0.313, Y -0.603, W -0.639, V -0.749, T -0.934, L -0.518
G75: S -0.479, R -0.933, P -0.84
